{"source": "a protein production outcome set (Wang et al. 2014)", "assay": "label from the status in PepcDB records"}
{"sequence": "TPLAEGAKAIETLCKLIKKGHIVAVKGIGGFHLVCDATKNRVVMELRERKKRPTKPFAVMFRSVFEIGKCTELSPIEEATILSPERPIVLISKRRPHRLEKFLISCDGVAPRVGTMGVFLPYSPLHSLLMEQAKIPLVFTSANLSGEPLIRDFKELCEKLSGVFDYYLDHDREILNPCDDSVVTIQNNKFQV", "values": [{"measurement": "protein production", "result": "failed"}]}
{"sequence": "MSSMGDQRGTRVYVGNLTDKVKKDDLEGEFTKYGKLNSVWIAFNPPGFAF", "values": [{"measurement": "protein production", "result": "failed"}]}
{"sequence": "MERKRYSKRYCKYTEAKISFIDYKDLDMLKHTLSERYKIMPRRLTGNSKKWQERVEVAIKRARHMALIPYIVDRKKVVDSPFKQH", "values": [{"measurement": "protein production", "result": "failed"}]}
{"sequence": "MMNTPESRLVAAGLELPEVAAALGNYEPYSIVGSQLMTSGQFPYLQGKLLYQGQLGADYTVSEGYAACRLATLNAIAQLKQACGELSRIKQIYRLEGVLNVHQSCIEHPKALDGASDLLLEIFGEAGRHSRMIWTNPVMPLNSLCLVYLFAEL", "values": [{"measurement": "protein production", "result": "not failed"}]}
{"sequence": "MNQLEFEQVSLYQIIVDSEKLAQEIYYQIEDEEISFYEAAYLYDVDAVRRQRCGYEGKVYRFSLPVNVATVIFRTSPKQLISPLQTEQGYHLFMVEEFIPAELEHHHHHH", "values": [{"measurement": "protein production", "result": "failed"}]}
{"sequence": "MNTKIITILFIAFLSVLFFTGCIEEKISSQEHGSTKGISSSNDENTENRTVTDSLGRQVQVPLMVERVADTWMGHNEVLAMLGADDRLVATMFSPQSRPWMYKVCPTFNDAVTLSPTYDIEELLATKPDVVFMSKSDKNLEKISNLGIPAVQVSFTDFDSMKKCISDTANVLGDEEALERAQQYNTYLDSKLESVRNTSSQIPDENRPKVLHVVSLSPLCVDGGGNIISDWIEAAGGVNAAEEVKGGIMQEVSMEQILKWNPDVIILSVNAKSREKEQIMNSDQWKKVKAIQDNRVFLNPEGAFIWSRAGAEEALQIQWAAKTINPDKFQFIDINNETKWFYKTFFEYELTDEEVQKILNAEAPN", "values": [{"measurement": "protein production", "result": "failed"}]}
{"sequence": "MNDSIKKINYLFICLFIFLNPLIPYNVKIHNNITVSDILLLVIFVLFLVEILRNRQKLKECFYIMLGDKTLFCLILLFIVMMISVTYAKEKPLALEESLRFFCYIGLYIILSLSYREEKHFKGFVTSFVASVTLISIIGIFQKITGMGIPHQYDYKVNGVTMVRVAAVFGNPNTLAAFMILSIFPIVMFAFFEKNLKKKAFYSILSVLIVYNAALTGSRNSYMGLALGFCVLALIYSIKLILPIIVLGGASMFLPQVTSRLRSIDNKNLNDARIKLWKTALKMIKDHPLSGVGNGNYIANYDAYVKQYPELRYADYSRFPVHNSYLKIESELGIFGGIFFVATIVNVFLKLYNTYKKTDIKIKKAFYLGFIASTSAFLFMNFSDNLLFVPSITSFFWMFVAIGDRH", "values": [{"measurement": "protein production", "result": "failed"}]}
{"sequence": "AANPDIMYRLLIQSVVDYAIYLLTPEGIVANWNPGAQRAKGYRAEEIVGQHYSLFYTDAERAAGLPAFNLEQARSTGRFEETGARLRKDGTAFHAHVVIEAVYDDAGQLVGFAKVTRDISERHRQELELLQAKELAEQYSQEMAKLSQFLDSVIANIP", "values": [{"measurement": "protein production", "result": "failed"}]}
{"sequence": "MEPAILIITLICGMLVSRIGLPPLIGYLVAGFVLFVMGIEKESMPLLQELANLGVTLLLFAIGLKLDIRSLFKAEVWAGSSVHLILSILVFVPILKILGLLGLSQLTSLGIEQLTLLAFALSFSSTVFAVKVLEDKGDMQSLYGRVAIGILIMQDIFAVLFLTISKGDVPSVWAFALLLLPLAKPLIYKAFDRVGHGELLVLFGLVMALVVGAWLFESLGLKPDLGALVIGILLAGHKKASELAKSLFYFKELFLVAFFLTIGLNGLPTVSDIVLAALLVLLVPLKILLFVYILTRFKLRSRTSMLGSFNLGNFSEFGLIVAAVATSKGWLPSHWLVIIAVALSFSFLLAAPLNATVGSIYQRFQLRLVRLEKRPLHPEDRPIAIGNPRFLILGMGRIGSGAYDELRARFDGEILGIEHKQDLVDLHRAKGRNVVQGDASDTDFWEKLDKAPNLELVLLAMPHHAGNLFAVEQLNKLNYQGKISAIVQYGEDAASLRNSGVHSVYNLYEAAGAGFVDHVVHELLPDSETKAGTEAQEGTQKQTSSLV", "values": [{"measurement": "protein production", "result": "failed"}]}
{"sequence": "MRFHFFPQPLDRAAWSVFLVALVLTLLLVWGGDRTQAQVREFSWQNRDVGASDRAFILSFNRLMDWSSVATHLRIEPALEGKASWSGRRFAYTLTQPIPYGQTFKVSLEDAVSVPQGKPIKPFQGQFRSRDRVLVYLGSGAEEGRLILYNLTLQQKIFLTPPNLRVFDFQPYPAGDRILFSAGERGEQMGFDPQLYIVTTGLYFNAPDTPRRQAHPAGEISLILDNSEYQNLRFQLANDGSKIVVQRVNRLQPADSSLWLLDENFQPRRLNQAAAGEFRIAPDNQHLIIAQGQGLAIVPLEATNGESNFDFLPQYGMVLDFSRDGRQVAAVKFNPNFSRSLYVVDIFGEHREVLTINGSIIAGQFDPSGQFLYVILTRIEGEGNYREVPYLALLDLKTKELFKLKDFDPQQELYLSLAPDGRTLAIDAVEGREIPAEVDHGDLYSETAPVTPSPRDLVELPPAPPGSPLPPRQLPAQEHQIWLLPLKLDQDKIVVGMPEPLAPGLQARWLP", "values": [{"measurement": "protein production", "result": "failed"}]}
{"sequence": "MTSAQAVSEGTGEAAAQAISLRTWVAVLGSVVGCFMAGMNVHVTNASLPDVRGSLGATFEEGSWITTAYLVAEIIIIPMTGWLVSVFSMRRVLMVGTAGFVLFSIACSLAPNIHSLIFARVLQGAFGGVLIPLSFQLIVTELPAARHPMGMALFAVANNVAQAAGPSLGGWLTDAYSWRWIFYLQVPPGLLLLAAIGWSVRPQPMVLAKLRQGDWGGIASMAVGLSALQIMLEEGGRYDWFASSFISHCAILATVGLLAFVAIELRREQPLINLRLLGRYNFGIASLMQFTFGAVVFGVVFLVPNYFAQIHGYNARQIGLMMIPYGLIQFVMSFATPRLMRWTSARTIIIAGFAITGIGCLMNIHLNPDASVNVIVPSLVVRGIGQSLVVVALGVMAIQGLEKDQVGSASGLFSMVRNVGGAIGIALSSQIVVEREKLHAQRIGESVSLFAQATQERLVELVRLLAQAPVEYATALHSAALAPLRQQALGMVDKVLHRDALLLAYSDAFLLAGLAMLLCVVAGVLLRRA", "values": [{"measurement": "protein production", "result": "failed"}]}
{"sequence": "MALNNFLTFQLLLLLLRVSSESPWIVAGDVSRIPINFLELAKSPEVFDSMVRIRRKIHENPELGYEEFETSKFIRSELDLIGVKYRFPVAITGIIGYIGTGEPPFVALRADMDALPIQEAVEWEHKSKNPGKMHACGHDGHVAMLLGAAKILQQHRQHLQGTVVLIFQPAEEGLSGAKMMREEGALKNVEAIFGIHLSPRTPFGKAASLAGSFMAGAGAFEAVITGKGGHAAIPQHTIDPVVAASSIVLSLQHLVSRETDPSDSKVVTVTKVNGGNAFNVIPDSITIGGTLRAFTGFTQLQERIKEIITKQAAVHRCNASVNLAPNGNQPMPPTVNNMDLYKKFKKVVRDLLGQEAFVEAVPEMGSEDFSYFAETIPGHFSLLGMQDETQGYASSHSPHYRINEDVLPYGAAIHATMAVQYLKDKASKGSVSGFHDEL", "values": [{"measurement": "protein production", "result": "not failed"}]}
{"sequence": "MVQMNNFLFDAQNIATPLMLVDLDDTLFQTHRRIVPQTDFKMVTTDKQGQALAYMNPIQQHFVQWLLHSTHLIPVTARSAEALSRVHLPFQYGAVCSHGGTVLNPDFSVNVDWHVQMQQALTSYQERQQILIDALQQQAINFGSIRTWVVEEQGLGLYIVAKQNTENDNPYAPNFLPELLNSLSSEVLEGFYFHLNGNNLALIPQPVSKANAARFVLQQFASQQRPILGFGDSLSDVEFLNLCHWWGMPNHSQLNRWVKHNLTQQYKQEGFYGDYQ", "values": [{"measurement": "protein production", "result": "failed"}]}
{"sequence": "GERRIPESRILRREVVEATSAVAAALQIPARAPVIEMTRVRLIDGAPMLAEEIWLPYDRFAAFSRLELDSIGDLLYPVYEAHCNQIVASATETLTVEAIGPAHARLLRIEPGTPAVVIERLAYGYDRRPLEWRRSRGPASEFIYQAEIR", "values": [{"measurement": "protein production", "result": "failed"}]}
{"sequence": "MICLPETGFLAEASPRLKQMLAAQAAEIGLARGDTLFKQGDPGDALYAVLSGALEISILSLDGRKLSLDLVGPGAVFGEIALFDPGPRTATVSAAEPARVLRVLSADVMAELRRHPELAIDMVRLAGQRMRWMGGQLNEQVFLPVPTRLARKLLHLAPHHDAGGATVRLSQAELAEYVGATREAVSKTLAHWKRMGVIEVARGTLAIRDPQALRALADPDQI", "values": [{"measurement": "protein production", "result": "failed"}]}
{"sequence": "MTNKRVVQTFLATSALFLAMSGMSARAQDASAPAAGAPAPSAAAPMHHHGSGFKKLDTNGDGMVSRDEAKGHRWLEDHFDEIDTNHDGQISKDELAAWHKTHAGEMRGKMQARLDAKFKAADKNGDGALTREEMQAGLPKLARHFDEIDANHDGKVTEDEIRAFMKARHDAHRAQHGTPAAAVTPGGPSATKGE", "values": [{"measurement": "protein production", "result": "failed"}]}
{"sequence": "MKLKKEKKMAEFTFEIEEHLLTLSENEKGWTKEINRVSFNGAPAKFDIRAWSPDHTKMGKGITLSNEEFQTMVDAFKGNLEHHHHHH", "values": [{"measurement": "protein production", "result": "not failed"}]}
